Drawing on publication PMC7175280, this text covers stoichiometry N for one substance.

For the test, the target named is Mus musculus inward rectifier K+ (Kir) channel 3.1 - Paraburkholderia xenovorans KirBac1.3 chimera (Mus musculus | Paraburkholderia xenovorans (Burkholderia xenovorans LB400)) (UniProt P63250). Nature of the test: SEC; HiLoad 16/600 Superdex 200 in 20 mM HEPES pH 7.5, 150 mM KCl, 5 mM DDM, 2 mM DTT, 1 mM EDTA, 0.02% NaN3; protein loaded at ~3 mg/mL; tetramer fractions collected. In general terms: In gel filtration, larger molecules generally elute earlier.

What is called stoichiometry N is the number of molecules, sites or subunits per partner or assembly. On to “Mus musculus inward rectifier K+ (Kir) channel 3.1 - Paraburkholderia xenovorans KirBac1.3 chimera (from UniProt P63250 181-371; P63250 181-371)”, for which the stoichiometry N amounted to 4.
